Results published in article PMC9825169, “The Caulobacter crescentus DciA promotes chromosome replication through topological loading of the DnaB replicative helicase at replication forks” (Nucleic Acids Research, 2022).

B2: DnaB with a C-terminal hexahistidine tag (DnaB-His; 56 kDa) (enzyme, Caulobacter crescentus, UniProt A0A0H3C7A8 1-507, looked up)
chain: MPMSLVPALDLVLPGLPEPTINVAPHNMEAEQALLGVLLYDNAAYERLSDNLQARCFYEPFHQRLFQAIETHVRKGQLAEPILLADEFKKDPAFEELGGLRYLADLVDRAPPAANVGDYARVIFDLSLRRELIRIGGDIATAAQGGNDEKRNARDQIEAAEQSLYSLAESGAASSGFVSFGDALRGAVEMTAEAYSRDGGMSGVSTDLMDLDQKIGGLHPSDLIILAGRPSMGKTALATNIAFNIAKKYAYEIQPDGTKKTVQGGVVAFYSLEMSAEQLALRMLADASGVSGDRLRKGEIDASEFGRVRDAAMELQNAPLYIDATGGISIAKLTARARRLKRQVGLDLIVVDYLQLVTGSDLGANANRVQEVSQITMGLKALAKELSVPVIALSQLSRQVEQRDDKRPQLSDLRESGSIEQDADMVWFVYREAYYVGRAEPREGTPEHLTWQEEMDRLQGLAEVIIAKQRHGPIGTVRLSFNSDTTRFGNLARDHYFAQARNIPSDE
notes: Replicative DNA helicase DnaB (CCNA_01737) of Caulobacter crescentus; Hexamer by size exclusion chromatography; Construction details are in the Supplemental Materials; also called C. crescentus DnaB; CCNA_01737; source: E. coli, purified (procedure in the Supplemental Material); not shown: His6, C-terminal, kept

How the values were obtained:
DnaB-His = molecular target: T1, DnaB-His (Caulobacter vibrioides, UniProt A0A0H3C7A8); experiment: ATPase assay, [alpha-32P]ATP, TLC on PEI cellulose, Michaelis-Menten fit; format: biochemical; conditions: pH 7.5, 10 mM magnesium acetate, 30 C, 5-160 uM ATP, 8.3 nM hexamer, no DciA; labelled compound
T1 construct: gene CCNA_01737; full-length, C-terminal His6 tag kept, expressed in E. coli Rosetta 2(DE3), 56 kDa monomer, hexamer (330 kDa) from size exclusion chromatography

[1] = molecular target: B2; experiment: SEC; Superdex 200 Increase 10/300 GL; 25 mM Tris-HCl pH 7.5, 300 mM sodium chloride, 20% glycerol, 0.1 mM ATP, 5 mM magnesium chloride; 0.2 ml/min; DnaB-His 10 nmol, His-DciA 25 nmol, alone or mixed; fractions on SDS-PAGE with Coomassie staining; conditions: both partners purified
[2] = molecular target: the molecule itself; experiment: as above

## Nc1ncnc2c1ncn2[C@@H]1O[C@H](COP(=O)(O)OP(=O)(O)OP(=O)(O)O)[C@@H](O)[C@H]1O [ATP]
DnaB-His
  ATPase assay, [alpha-32P]ATP, TLC on PEI cellulose, Michaelis-Menten fit: ATP hydrolysis was readily observed at various concentrations of wild-type DnaB-His

B1: DciA with an N-terminal hexahistidine tag (His-DciA; 21 kDa) (natural protein, Caulobacter crescentus, UniProt A0A0H3C5R2 1-179, looked up)
chain: MRRPLPTPEEAIAILRSKRTKPQRRPPPPAGKNLAPLLKDLEDRFGKGPAALQARWKEIVGDTLARRTEPVRIIKGRNGEGGALELRVDGPVASLIQHQAPQITARLDMLLGKGVVTRLRIVQGPVKAPAAAPSTRLRRKPPLDAALEKQLADSLAEQPDGALKQALLKLGRGVLSSER
notes: DciA (CCNA_00380) of Caulobacter crescentus; This is surmised from the primer; construction details are in the Supplemental Materials; source: E. coli, purified (procedure in the Supplemental Material); not shown: His6, N-terminal, kept
[1]
  stoichiometry N: 1.9 DnaB-His per His-DciA

## B2
[2]
  stoichiometry N: 6
